{"source": "patent US20160136234A1", "target": "Mitogen-Activated Protein Kinase-Activated Protein Kinase 2 (human) (UniProt P49137)", "experiment": "cell-based or functional assay"}
{"substance": "MMI-0100 (peptide)", "values": [{"measurement": "IC50 (radiometric kinase activity assay)", "value": 22, "unit": "µM"}]}
